Molecular target: translocated ALK of ALK-translocated NSCLC tumors (n = 6) (human (endogenous in NSCLC tumors))
Assay: proximity ligation; Duolink PLA with mouse HER3 and rabbit ALK antibodies on FFPE sections of ALK-translocated NSCLC tumors (n = 6)

mean signal for PLA per cell (signals per cell): 17.2
Substance: human epidermal growth factor receptor 3 (from UniProt P21860 20-1342)
